Data published in article PMC2584968 (Nature, 2007).

Biological target: HIV-1 gp120 fragment OD1 (HIV-1)
Assay: SPR

B1: broadly neutralizing antibody b12 (antibody, V domains shown)
VH: QVQLVQSGAEVKKPGASVKVSCQASGYRFSNFVIHWVRQAPGQRFEWMGWINPYNGNKEFSAKFQDRVTFTADTSANTAYMELRSLRSADTAVYYCARVGPYSWDDSPQDNYYMDVWGKGTTVIVSS
VL: EIVLTQSPGTLSLSPGERATFSCRSSHSIRSRRVAWYQHKPGQAPRLVIHGVSNRASGISDRFSGSGSGTDFTLTITRVEPEDFALYYCQVYGASSYTFGQGTKLERK
  fold faster dissociation rate than on HXBc2 core gp120: ~15 fold
